Assay results taken from the supplement of paper PMC7877785.
± gives the uncertainty stated by the source.

Experiment: self-splicing fitness, log relative to wild type (ln ratio); higher = more splicing; Tetrahymena group I intron in knt gene, E. coli kanamycin selection, DiMSum; sequences stand for … in CUCUCU…GGAGGGAAAAGUUAUCAGGCAUGCACCUGGUAGCUAGUCUUUAAACCAAUAGAUUGCAUCGGUUUAAAAGGCAAGACCGUCAAAUUGCGGGAAAGGGGUCAACAGCCGUUCAGUACCAAGUCUCAGGGGAAACUUUGAGAUGGCCUUGCAAAGGGUAUGGUAAUAAGCUGACGGACAUGGUCCUAACCACGCAGCCAAGUCCUAAGUCAACAGAUCUUCUGUUGAUAUGGAUGCAGUUCACAGACUAAAUGUCGGUCGGGGAAGAUGUAUUCUUCUCAUAAGAUAUAGUCGGACCUCUCCUUAAUGGGAGCUAGCGGAUGAAGUGAUGCAACACUGGAGCCGCUGGGAACUAAUUUGUAUGCGAAAGUAUAUUGAUUAGUUUUGGAGUACUCGUGGUCG
Method in brief: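 Library with all eight P1ex-region intron nucleotides randomised, intron inside the knt kanamycin-resistance gene on pET-22b(+), in E. coli BL21(DE3). Cells grew overnight at 37°C or 30°C on LB agar with or without 25 μg/mL kanamycin (plus 100 μg/mL carbenicillin, 50 μM IPTG, 0.2% rhamnose), in six replicate transformations. Pooled colonies were amplicon-sequenced on Illumina HiSeq 2500. DiMSum fitness is the error-weighted combination of wild-type-normalised replicate fold changes, kanamycin versus none.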

Row | Sequence | self-splicing fitness (ln) (30 °C) | self-splicing fitness (ln) (37 °C)
1 | UAAUAGCAAUAUUACGACCA | -0.451 ± 0.2 | 0.216 ± 0.31
2 | UAAUAGCAAUAUUACGACCU | -1.69 ± 0.15 | -0.4 ± 0.15
3 | UAAUAGCAAUAUUACGAGCU | -3.02 ± 0.29 | -1.79 ± 0.3
4 | UAAUAGCAAUAUUACGCAAA | -2.03 ± 0.18 | -1.27 ± 0.15
5 | UAAUAGCAAUAUUACGCGGG | -3.18 ± 0.21 | -1.65 ± 0.2
6 | UAAUAGCAAUAUUACGCUAA | -2.11 ± 0.27 | -1.39 ± 0.19
7 | UAAUAGCAAUAUUACGGAAA | – | -2.44 ± 0.26
8 | UAAUAGCAAUAUUACGGAUA | -1.97 ± 0.17 | -1.83 ± 0.2
9 | UAAUAGCAAUAUUACGGGCA | -0.899 ± 0.2 | -0.61 ± 0.19
10 | UAAUAGCAAUAUUACGGUAC | -3.69 ± 0.43 | -2.37 ± 0.37
11 | UAAUAGCAAUAUUACGGUUA | -0.888 ± 0.11 | -0.925 ± 0.091
12 | UAAUAGCAAUAUUACGUCCG | -0.913 ± 0.23 | -0.835 ± 0.2
13 | UAAUAGCAAUAUUACGUCUU | -3.1 ± 0.17 | -1.1 ± 0.11
14 | UAAUAGCAAUAUUACGUGCU | -1.98 ± 0.1 | -0.994 ± 0.1
15 | UAAUAGCAAUAUUACGUUAG | -1.84 ± 0.094 | -1.13 ± 0.12
16 | UACAAGCAAUAUUACGAACA | -1.14 ± 0.11 | -0.734 ± 0.097
17 | UACAAGCAAUAUUACGAAGC | -3.39 ± 0.23 | -2.74 ± 0.26
18 | UACAAGCAAUAUUACGAAUA | -1.56 ± 0.087 | -0.567 ± 0.1
19 | UACAAGCAAUAUUACGACAG | -1.15 ± 0.092 | -0.241 ± 0.11
20 | UACAAGCAAUAUUACGACGC | -2.93 ± 0.25 | -1.67 ± 0.23
21 | UACAAGCAAUAUUACGACUG | -0.079 ± 0.063 | 0.278 ± 0.092
22 | UACAAGCAAUAUUACGAGCA | -0.289 ± 0.067 | -0.0424 ± 0.075
23 | UACAAGCAAUAUUACGAGUU | -2.14 ± 0.069 | -0.96 ± 0.074
24 | UACAAGCAAUAUUACGCCAU | -3.15 ± 0.17 | -2.62 ± 0.22
25 | UACAAGCAAUAUUACGCCCC | -2.04 ± 0.49 | –

Row | Sequence | self-splicing fitness (ln) (30 °C) | self-splicing fitness (ln) (37 °C)
26 | UACAAGCAAUAUUACGCGUC | -2.06 ± 0.1 | -1.23 ± 0.14
27 | UACAAGCAAUAUUACGCUCA | -0.545 ± 0.087 | -0.0026 ± 0.12
28 | UACAAGCAAUAUUACGCUGA | -2.32 ± 0.13 | -1.78 ± 0.13
29 | UACAAGCAAUAUUACGGAAA | -2.07 ± 0.24 | -1.99 ± 0.27
30 | UACAAGCAAUAUUACGGCAU | -1.49 ± 0.068 | -0.705 ± 0.072
31 | UACAAGCAAUAUUACGGCCC | -1.69 ± 0.31 | -1.35 ± 0.44
32 | UACAAGCAAUAUUACGGCCU | -1.09 ± 0.094 | -0.547 ± 0.13
33 | UACAAGCAAUAUUACGGCUU | -3.99 ± 0.16 | -2.37 ± 0.15
34 | UACAAGCAAUAUUACGGGAA | -2.41 ± 0.12 | -1.6 ± 0.097
35 | UACAAGCAAUAUUACGGGGA | -1.5 ± 0.12 | -1.09 ± 0.13
36 | UACAAGCAAUAUUACGGUCG | -0.0495 ± 0.068 | -0.0985 ± 0.1
37 | UACAAGCAAUAUUACGGUCU | -1.52 ± 0.052 | -0.534 ± 0.065
38 | UACAAGCAAUAUUACGGUGA | -1.28 ± 0.082 | -0.89 ± 0.1
39 | UACAAGCAAUAUUACGUCCC | -1.25 ± 0.39 | -1.58 ± 0.42
40 | UACAAGCAAUAUUACGUCCG | -0.564 ± 0.068 | -0.0254 ± 0.091
41 | UACAAGCAAUAUUACGUGAC | -3.89 ± 0.18 | -1.85 ± 0.1
42 | UACAAGCAAUAUUACGUUUU | -3.05 ± 0.11 | -2.32 ± 0.12
43 | UACCAGCAAUAUUACGAUCG | -0.0679 ± 0.046 | -0.31 ± 0.06
44 | UACCAGCAAUAUUACGCCUC | -2.32 ± 0.19 | -0.554 ± 0.18
45 | UACCAGCAAUAUUACGCGGU | -4.05 ± 0.17 | -3.47 ± 0.2
46 | UACCAGCAAUAUUACGGAAU | -2.32 ± 0.093 | -1.5 ± 0.1
47 | UACCAGCAAUAUUACGGAGC | -3 ± 0.15 | -3.22 ± 0.27
48 | UACCAGCAAUAUUACGGAUC | -1.46 ± 0.058 | 0.242 ± 0.084
49 | UACCAGCAAUAUUACGGGCC | -2.22 ± 0.1 | -1.2 ± 0.11
50 | UACCAGCAAUAUUACGGGCG | -0.359 ± 0.072 | -0.277 ± 0.079

Row | Sequence | self-splicing fitness (ln) (30 °C) | self-splicing fitness (ln) (37 °C)
51 | UACCAGCAAUAUUACGGGUC | -2.46 ± 0.13 | -1.99 ± 0.18
52 | UACCAGCAAUAUUACGGUCG | -0.769 ± 0.064 | 0.485 ± 0.091
53 | UACCAGCAAUAUUACGGUUU | -0.896 ± 0.056 | -0.463 ± 0.065
54 | UACCAGCAAUAUUACGUCAU | -2.21 ± 0.085 | -1.52 ± 0.088
55 | UACCAGCAAUAUUACGUGAC | -3.12 ± 0.13 | -1.12 ± 0.14
56 | UACCAGCAAUAUUACGUUAA | -1.36 ± 0.073 | -0.903 ± 0.081
57 | UACCAGCAAUAUUACGUUUC | -4 ± 0.28 | -2.56 ± 0.22
58 | UACGAGCAAUAUUACGACUU | -2.11 ± 0.13 | -0.959 ± 0.15
59 | UACGAGCAAUAUUACGAGCU | -2.28 ± 0.33 | –
60 | UACGAGCAAUAUUACGAUCC | -3.23 ± 0.33 | –
61 | UACGAGCAAUAUUACGAUCG | -0.594 ± 0.1 | -0.663 ± 0.13
62 | UACGAGCAAUAUUACGCAAG | -2.57 ± 0.15 | -2.03 ± 0.35
63 | UACGAGCAAUAUUACGCACC | -1.91 ± 0.39 | –
64 | UACGAGCAAUAUUACGCAGG | -2.88 ± 0.21 | -2.64 ± 0.22
65 | UACGAGCAAUAUUACGCCCC | -2.16 ± 0.44 | –
66 | UACGAGCAAUAUUACGCCGG | -2.84 ± 0.29 | 0.206 ± 0.22
67 | UACGAGCAAUAUUACGCGUC | -1.91 ± 0.13 | -2.3 ± 0.19
68 | UACGAGCAAUAUUACGCGUU | -1.67 ± 0.2 | -3.64 ± 0.42
69 | UACGAGCAAUAUUACGCUAA | -2.89 ± 0.42 | -2.85 ± 0.35
70 | UACGAGCAAUAUUACGCUGU | -2.78 ± 0.28 | -1.47 ± 0.39
71 | UACGAGCAAUAUUACGCUUU | -4.61 ± 0.42 | -2.4 ± 0.22
72 | UACGAGCAAUAUUACGGAGU | – | -2.68 ± 0.23
73 | UACGAGCAAUAUUACGGCGG | -1.79 ± 0.13 | -1.08 ± 0.17
74 | UACGAGCAAUAUUACGGGCA | -1.77 ± 0.089 | -0.925 ± 0.087
75 | UACGAGCAAUAUUACGUAGA | -3.47 ± 0.17 | -2.77 ± 0.29

Row | Sequence | self-splicing fitness (ln) (30 °C) | self-splicing fitness (ln) (37 °C)
76 | UACGAGCAAUAUUACGUCGG | -3.5 ± 0.23 | -1.38 ± 0.15
77 | UACGAGCAAUAUUACGUUUG | -3.84 ± 0.27 | -1.94 ± 0.17
78 | UACUAGCAAUAUUACGAUUA | -0.867 ± 0.13 | 0.62 ± 0.16
79 | UACUAGCAAUAUUACGAUUC | -2.3 ± 0.23 | -1.76 ± 0.43
80 | UACUAGCAAUAUUACGCACA | -0.646 ± 0.079 | 0.021 ± 0.092
81 | UACUAGCAAUAUUACGCCAU | -2.57 ± 0.26 | -3.06 ± 0.33
82 | UACUAGCAAUAUUACGCCGA | -1.25 ± 0.19 | -0.403 ± 0.17
83 | UACUAGCAAUAUUACGCCUU | -1.93 ± 0.15 | -0.434 ± 0.13
84 | UACUAGCAAUAUUACGCGCC | – | -1.37 ± 0.37
85 | UACUAGCAAUAUUACGGGCA | -0.178 ± 0.071 | 0.53 ± 0.11
86 | UACUAGCAAUAUUACGGUUC | -2.29 ± 0.29 | -1.63 ± 0.39
87 | UACUAGCAAUAUUACGUAAC | -2.8 ± 0.17 | -3.33 ± 0.42
88 | UACUAGCAAUAUUACGUACA | -1.56 ± 0.12 | -0.448 ± 0.13
89 | UACUAGCAAUAUUACGUAGG | -4.09 ± 0.35 | -1.69 ± 0.22
90 | UACUAGCAAUAUUACGUAGU | -3.62 ± 0.22 | -1.65 ± 0.25
91 | UACUAGCAAUAUUACGUAUC | -2.06 ± 0.2 | -2.9 ± 0.4
92 | UACUAGCAAUAUUACGUCGC | -4.8 ± 0.46 | -3.62 ± 0.24
93 | UACUAGCAAUAUUACGUCUC | -3.59 ± 0.32 | -2.93 ± 0.31
94 | UACUAGCAAUAUUACGUUAG | -3.54 ± 0.19 | -2.66 ± 0.23
95 | UACUAGCAAUAUUACGUUGC | -2.38 ± 0.26 | -1.85 ± 0.28
96 | UAGAAGCAAUAUUACGACUU | -0.772 ± 0.11 | -0.183 ± 0.17
97 | UAGAAGCAAUAUUACGAGAA | -1.7 ± 0.44 | -1.55 ± 0.35
